The values below come from patent publication US20060110774A1.

This test has as its target rabbit anti-GRK polyclonal antibody. The test can be described thus: competitive inhibition ELISA: pAb pre-incubated with pGRK, then added to immobilised rGRK.

With NSQSYYNGDPFITKDC [synthetic peptide pGRK (…) derived from human Granzyme K], the concentration giving complete inhibition of antibody binding came out at 10 ng/µL.
